Test results from patent publication US20200079833A1 (AstraZeneca / MedImmune, published 2020).
Non-standard residues stand in square brackets, D forms with d. Groups on a side chain read outwards from the residue. Primed or numbered codes have the meaning given here. No end group written: not given here. *: point of attachment. Stearoyl = CCCCCCCCCCCCCCCCCC(=O)*; αMeF = C[C@](N)(Cc1ccccc1)C(=O)O; αMeK = C[C@](N)(CCCCN)C(=O)O; αMeS = C[C@](N)(CO)C(=O)O; PEG2′ = not defined here; Aib = CC(C)(N)C(=O)O; Ahx = NCCCCCC(=O)O

T1: glucose-dependent insulinotropic peptide (gastric inhibitory polypeptide) receptor (GIPR) (human, UniProt P48546 22-466)
T1 sequence (looked up): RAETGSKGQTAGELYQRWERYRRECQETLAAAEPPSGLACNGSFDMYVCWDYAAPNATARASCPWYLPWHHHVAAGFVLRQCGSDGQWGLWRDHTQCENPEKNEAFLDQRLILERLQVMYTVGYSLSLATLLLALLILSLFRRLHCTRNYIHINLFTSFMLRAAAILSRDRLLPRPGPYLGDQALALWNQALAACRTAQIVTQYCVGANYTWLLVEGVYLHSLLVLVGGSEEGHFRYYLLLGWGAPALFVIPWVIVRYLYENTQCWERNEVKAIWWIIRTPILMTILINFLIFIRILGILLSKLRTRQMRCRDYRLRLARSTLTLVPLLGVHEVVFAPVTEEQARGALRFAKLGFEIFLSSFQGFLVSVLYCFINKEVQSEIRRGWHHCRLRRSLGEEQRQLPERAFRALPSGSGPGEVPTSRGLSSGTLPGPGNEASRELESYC

B1: SEQ ID NO 186 (peptide)
peptide: H[Aib]EGS[αMeF]TSDV[αMeS]S[αMeF]LEGEAA[αMeK]E[αMeF]IA[αMeF]VVK([Ahx-Ahx-Stearoyl])GG-NH2
modifications: N-terminus assumed
SMILES: CCCCCCCCCCCCCCCCCC(=O)NCCCCCC(=O)NCCCCCC(=O)NCCCC[C@H](NC(=O)[C@@H](NC(=O)[C@@H](NC(=O)[C@](C)(Cc1ccccc1)NC(=O)[C@H](C)NC(=O)[C@@H](NC(=O)[C@](C)(Cc1ccccc1)NC(=O)[C@H](CCC(=O)O)NC(=O)[C@](C)(CCCCN)NC(=O)[C@H](C)NC(=O)[C@H](C)NC(=O)[C@H](CCC(=O)O)NC(=O)CNC(=O)[C@H](CCC(=O)O)NC(=O)[C@H](CC(C)C)NC(=O)[C@](C)(Cc1ccccc1)NC(=O)[C@H](CO)NC(=O)[C@](C)(CO)NC(=O)[C@@H](NC(=O)[C@H](CC(=O)O)NC(=O)[C@H](CO)NC(=O)[C@@H](NC(=O)[C@](C)(Cc1ccccc1)NC(=O)[C@H](CO)NC(=O)CNC(=O)[C@H](CCC(=O)O)NC(=O)C(C)(C)NC(=O)[C@@H](N)Cc1c[nH]cn1)[C@@H](C)O)C(C)C)[C@@H](C)CC)C(C)C)C(C)C)C(=O)NCC(=O)NCC(N)=O
B2: SEQ ID NO 187 (peptide)
peptide: H[Aib]EGS[αMeF]TSDV[αMeS]S[αMeF]LEGEAA[αMeK]E[αMeF]IA[αMeF]VVK([Ahx-Ahx-Ahx-Stearoyl])GG-NH2
modifications: N-terminus assumed
SMILES: CCCCCCCCCCCCCCCCCC(=O)NCCCCCC(=O)NCCCCCC(=O)NCCCCCC(=O)NCCCC[C@H](NC(=O)[C@@H](NC(=O)[C@@H](NC(=O)[C@](C)(Cc1ccccc1)NC(=O)[C@H](C)NC(=O)[C@@H](NC(=O)[C@](C)(Cc1ccccc1)NC(=O)[C@H](CCC(=O)O)NC(=O)[C@](C)(CCCCN)NC(=O)[C@H](C)NC(=O)[C@H](C)NC(=O)[C@H](CCC(=O)O)NC(=O)CNC(=O)[C@H](CCC(=O)O)NC(=O)[C@H](CC(C)C)NC(=O)[C@](C)(Cc1ccccc1)NC(=O)[C@H](CO)NC(=O)[C@](C)(CO)NC(=O)[C@@H](NC(=O)[C@H](CC(=O)O)NC(=O)[C@H](CO)NC(=O)[C@@H](NC(=O)[C@](C)(Cc1ccccc1)NC(=O)[C@H](CO)NC(=O)CNC(=O)[C@H](CCC(=O)O)NC(=O)C(C)(C)NC(=O)[C@@H](N)Cc1c[nH]cn1)[C@@H](C)O)C(C)C)[C@@H](C)CC)C(C)C)C(C)C)C(=O)NCC(=O)NCC(N)=O
B3: SEQ ID NO 189 (peptide)
peptide: H[Aib]EGS[αMeF]TSDV[αMeS]S[αMeF]LEGEAA[αMeK]E[αMeF]IA[αMeF]VVK([PEG2′-PEG2′-Stearoyl])GG-NH2
B4: SEQ ID NO 188 (peptide)
peptide: H[Aib]EGS[αMeF]TSDV[αMeS]S[αMeF]LEGEAA[αMeK]E[αMeF]IA[αMeF]VVK([PEG2′-Stearoyl])GG-NH2

The binders below were run against GLP-1 receptor (GLP-1R) (human, UniProt P43220 24-463) (assay: cell-based or functional assay).

Row | Primary assay EC50 (cAMP), GLP-1R n1 [nM] | Primary assay EC50 (cAMP), GLP-1R n2 [nM] | Primary assay EC50 (cAMP), Mean pM GLP-1R [pM] | Binder
1 | 0.13 | 0.05 | 87.5 | B1
2 | 0.064 | 0.031 | 47.4 | B2
3 | 0.03 | 0.012 | 20.8 | B3
4 | 0.17 | 0.077 | 125 | B4

What follows are binders tested against T1, glucose-dependent insulinotropic … (assay: cell-based or functional assay).

Row | Primary assay EC50 (cAMP), GIP-R, first run [nM] | Primary assay EC50 (cAMP), GIP-R, second run [nM] | Binder
5 | 27 | 27 | B1
6 | 26 | 26 | B2
7 | 27 | 27 | B3
8 | 28 | 28 | B4

What follows are binders tested against glucagon receptor (GCGR) (human, UniProt P47871 26-477) (assay: cell-based or functional assay).
glucagon receptor (GCGR), sequence (P47871 26-477): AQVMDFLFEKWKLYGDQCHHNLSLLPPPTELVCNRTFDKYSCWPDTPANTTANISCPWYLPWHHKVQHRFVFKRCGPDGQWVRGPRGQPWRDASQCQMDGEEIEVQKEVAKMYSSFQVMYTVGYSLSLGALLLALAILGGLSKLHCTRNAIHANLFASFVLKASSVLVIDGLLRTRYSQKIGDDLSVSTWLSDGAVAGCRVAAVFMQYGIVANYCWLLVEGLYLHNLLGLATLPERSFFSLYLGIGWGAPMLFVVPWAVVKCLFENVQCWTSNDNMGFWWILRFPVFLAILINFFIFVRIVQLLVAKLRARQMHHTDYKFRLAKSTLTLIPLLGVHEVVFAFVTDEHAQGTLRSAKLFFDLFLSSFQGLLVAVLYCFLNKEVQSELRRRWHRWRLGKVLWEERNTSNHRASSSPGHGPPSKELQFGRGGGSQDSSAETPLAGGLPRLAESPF

Row | Primary assay EC50 (cAMP), Gluc-R, first run [nM] | Primary assay EC50 (cAMP), Gluc-R, second run [nM] | Binder
9 | 27 | 27 | B1
10 | 26 | 26 | B2
11 | 27 | 27 | B3
12 | 28 | 28 | B4
